In the supplement of paper PMC6755084 one finds fraction ligated data, which are given here for 97 sequences.

The subject of this data set is F1*sub RNA substrate (template-directed ligation). The data set can be described thus: fraction ligated after 30 min (ligated reads / total reads); higher = more ligase activity; sequences stand for … in GAGACCGCAACTGAAAAGTTGT…AGTTCTGCACGTAGAAGCAAAAGGC
The following applies: 42 °C. The gist of the method: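 Ribozyme variants were transcribed with T7 from PCR-amplified oligo-pool templates and gel-purified. Ligated and unligated bands, separated on gel, were reverse transcribed with barcoded primers and sequenced on a MiSeq, with core bases filtered at quality ≥20. Fraction ligated per variant was computed as ligated reads divided by total reads.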
As to “TATCACTTGTCGTAGACCTTTGATGGGTTGA [3d2022]”, the fraction ligated was determined as 0.759.

As for “TATCACTTGTCGTAGACCTTTGGAGGGTTGA [3d2024]”, the fraction ligated turned out to be 0.211.

On to “TATCACTTGTCGTAGACCTTTGGATGGGTTA [3d2026]”, for which the fraction ligated was 0.798.

Sequence “TATCACTTGTCGTAGACCTTTGGATGGGTTG [3d2027]” returned a fraction ligated of 0.777.

For “TATCACTTGTCGTAGACCTTTGGATGGGTTGA [2d225]”, the fraction ligated is 0.814.

In turn, “TATCACTTGTCGTAGACCTTTGGATGGTTGA [3d2025]” showed a fraction ligated of 0.344.

The sequence “TATCACTTGTCGTAGACCTTTGGTGGGTTGA [3d2023]” showed a fraction ligated of 0.234.

In the case of “TATCACTTGTCGTAGACTTTGGATGGGTTGA [3d2003]”, the fraction ligated was 0.814.

Sequence “TATCACTTGTCGTAGCACTTGGATGGGTTGA [3d2006]” registered a fraction ligated of 0.741.

Consider “TATCACTTGTCGTAGCACTTTGATGGGTTGA [3d2007]”, for which the fraction ligated is 0.761.

In the case of “TATCACTTGTCGTAGCACTTTGGAGGGTTGA [3d2009]”, the fraction ligated turned out to be 0.101.

In turn, “TATCACTTGTCGTAGCACTTTGGATGGGTTA [3d2011]” displayed a fraction ligated of 0.728.

In the case of “TATCACTTGTCGTAGCACTTTGGATGGGTTG [3d2012]”, the fraction ligated was 0.792.

“TATCACTTGTCGTAGCACTTTGGATGGGTTGA [2d223]” showed a fraction ligated of 0.823.

The sequence “TATCACTTGTCGTAGCACTTTGGATGGTTGA [3d2010]” gave a fraction ligated of 0.171.

With “TATCACTTGTCGTAGCACTTTGGTGGGTTGA [3d2008]”, the fraction ligated was 0.0859.

Sequence “TATCACTTGTCGTAGCATTTGGATGGGTTGA [3d2005]” yielded a fraction ligated of 0.815.

“TATCACTTGTCGTAGCCTTTGGATGGGTTGA [3d2004]” came in with a fraction ligated of 0.768.

Turning to “TATCACTTGTCGTGAACTTTGGATGGGTTGA [3d1983]”, the fraction ligated worked out at 0.773.

Take “TATCACTTGTCGTGACACTTGGATGGGTTGA [3d1986]”: the fraction ligated was determined as 0.779.

The sequence “TATCACTTGTCGTGACACTTTGATGGGTTGA [3d1987]” came in with a fraction ligated of 0.508.

As for “TATCACTTGTCGTGACACTTTGGAGGGTTGA [3d1989]”, the fraction ligated was 0.0822.

In turn, “TATCACTTGTCGTGACACTTTGGATGGGTTA [3d1991]” yielded a fraction ligated of 0.703.

“TATCACTTGTCGTGACACTTTGGATGGGTTG [3d1992]” returned a fraction ligated of 0.826.

The sequence “TATCACTTGTCGTGACACTTTGGATGGGTTGA [2d221]” displayed a fraction ligated of 0.808.

For “TATCACTTGTCGTGACACTTTGGATGGTTGA [3d1990]”, the fraction ligated worked out at 0.0934.

The sequence “TATCACTTGTCGTGACACTTTGGTGGGTTGA [3d1988]” came in with a fraction ligated of 0.135.

As to “TATCACTTGTCGTGACATTTGGATGGGTTGA [3d1985]”, the fraction ligated is 0.809.

“TATCACTTGTCGTGACCTTTGGATGGGTTGA [3d1984]” gave a fraction ligated of 0.784.

Sequence “TATCACTTGTCGTGCACTTTGGATGGGTTGA [3d1982]” came in with a fraction ligated of 0.783.

In turn, “TATCACTTGTCTAAAACTTTGGATGGGTTGA [3d1836]” registered a fraction ligated of 0.789.

“TATCACTTGTCTAAACACTTGGATGGGTTGA [3d1839]” came in with a fraction ligated of 0.776.

“TATCACTTGTCTAAACACTTTGATGGGTTGA [3d1840]”: the fraction ligated was found to be 0.753.

“TATCACTTGTCTAAACACTTTGGAGGGTTGA [3d1842]” gave a fraction ligated of 0.133.

On to “TATCACTTGTCTAAACACTTTGGATGGGTTA [3d1844]”, for which the fraction ligated turned out to be 0.758.

Sequence “TATCACTTGTCTAAACACTTTGGATGGGTTG [3d1845]” showed a fraction ligated of 0.792.

As for “TATCACTTGTCTAAACACTTTGGATGGTTGA [3d1843]”, the fraction ligated came to 0.288.

“TATCACTTGTCTAAACACTTTGGTGGGTTGA [3d1841]” yielded a fraction ligated of 0.116.

The sequence “TATCACTTGTCTAAACATTTGGATGGGTTGA [3d1838]” displayed a fraction ligated of 0.841.

For “TATCACTTGTCTAAACCTTTGGATGGGTTGA [3d1837]”, the fraction ligated came out at 0.789.

As for “TATCACTTGTCTAACACTTTGGATGGGTTGA [3d1824]”, the fraction ligated came to 0.8.

In turn, “TATCACTTGTCTAAGAACTTGGATGGGTTGA [3d1857]” showed a fraction ligated of 0.771.

The sequence “TATCACTTGTCTAAGAACTTTGATGGGTTGA [3d1858]” showed a fraction ligated of 0.777.

With “TATCACTTGTCTAAGAACTTTGGAGGGTTGA [3d1860]”, the fraction ligated was found to be 0.108.

The sequence “TATCACTTGTCTAAGAACTTTGGATGGGTTA [3d1862]” yielded a fraction ligated of 0.735.

As for “TATCACTTGTCTAAGAACTTTGGATGGGTTG [3d1863]”, the fraction ligated came out at 0.782.

For “TATCACTTGTCTAAGAACTTTGGATGGTTGA [3d1861]”, the fraction ligated is 0.166.

“TATCACTTGTCTAAGAACTTTGGTGGGTTGA [3d1859]” had a fraction ligated of 0.162.

“TATCACTTGTCTAAGAATTTGGATGGGTTGA [3d1856]” came in with a fraction ligated of 0.794.

“TATCACTTGTCTAAGACACTGGATGGGTTGA [3d1878]” returned a fraction ligated of 0.787.

With “TATCACTTGTCTAAGACACTTGATGGGTTGA [3d1879]”, the fraction ligated amounted to 0.708.

“TATCACTTGTCTAAGACACTTGGAGGGTTGA [3d1881]” showed a fraction ligated of 0.0594.

In the case of “TATCACTTGTCTAAGACACTTGGATGGGTTA [3d1883]”, the fraction ligated turned out to be 0.701.

In turn, “TATCACTTGTCTAAGACACTTGGATGGGTTG [3d1884]” returned a fraction ligated of 0.781.

In the case of “TATCACTTGTCTAAGACACTTGGATGGTTGA [3d1882]”, the fraction ligated was determined as 0.12.

Regarding “TATCACTTGTCTAAGACACTTGGTGGGTTGA [3d1880]”, the fraction ligated came out at 0.113.

“TATCACTTGTCTAAGACACTTTATGGGTTGA [3d1885]” displayed a fraction ligated of 0.171.

Consider “TATCACTTGTCTAAGACACTTTGAGGGTTGA [3d1887]”, for which the fraction ligated was 0.0527.

Regarding “TATCACTTGTCTAAGACACTTTGATGGGTTA [3d1889]”, the fraction ligated is 0.162.

“TATCACTTGTCTAAGACACTTTGATGGGTTG [3d1890]”: the fraction ligated stood at 0.751.

In the case of “TATCACTTGTCTAAGACACTTTGATGGTTGA [3d1888]”, the fraction ligated was 0.0589.

Regarding “TATCACTTGTCTAAGACACTTTGGAGGGTTA [3d1896]”, the fraction ligated was 0.134.

“TATCACTTGTCTAAGACACTTTGGAGGGTTG [3d1897]” came in with a fraction ligated of 0.0676.

Turning to “TATCACTTGTCTAAGACACTTTGGAGGTTGA [3d1895]”, the fraction ligated is 0.095.

Take “TATCACTTGTCTAAGACACTTTGGATGGGTT [3d1900]”: the fraction ligated came to 0.747.

“TATCACTTGTCTAAGACACTTTGGATGGGTTA [2d206]” displayed a fraction ligated of 0.803.

“TATCACTTGTCTAAGACACTTTGGATGGGTTG [2d207]” showed a fraction ligated of 0.825.

“TATCACTTGTCTAAGACACTTTGGATGGGTTGA [1d11]” registered a fraction ligated of 0.818.

“TATCACTTGTCTAAGACACTTTGGATGGTTA [3d1898]” showed a fraction ligated of 0.372.

“TATCACTTGTCTAAGACACTTTGGATGGTTG [3d1899]”: the fraction ligated was 0.408.

“TATCACTTGTCTAAGACACTTTGGATGGTTGA [2d205]” returned a fraction ligated of 0.588.

In turn, “TATCACTTGTCTAAGACACTTTGGGGGTTGA [3d1891]” showed a fraction ligated of 0.118.

“TATCACTTGTCTAAGACACTTTGGTGGGTTA [3d1893]” registered a fraction ligated of 0.104.

Sequence “TATCACTTGTCTAAGACACTTTGGTGGGTTG [3d1894]” displayed a fraction ligated of 0.0778.

On to “TATCACTTGTCTAAGACACTTTGGTGGTTGA [3d1892]”, for which the fraction ligated turned out to be 0.104.

“TATCACTTGTCTAAGACACTTTGTGGGTTGA [3d1886]” came in with a fraction ligated of 0.044.

In turn, “TATCACTTGTCTAAGACATTGGATGGGTTGA [3d1871]” yielded a fraction ligated of 0.796.

Take “TATCACTTGTCTAAGACATTTGATGGGTTGA [3d1872]”: the fraction ligated came out at 0.345.

“TATCACTTGTCTAAGACATTTGGAGGGTTGA [3d1874]”: the fraction ligated stood at 0.0252.

In turn, “TATCACTTGTCTAAGACATTTGGATGGGTTA [3d1876]” yielded a fraction ligated of 0.793.

“TATCACTTGTCTAAGACATTTGGATGGGTTG [3d1877]” yielded a fraction ligated of 0.824.

For “TATCACTTGTCTAAGACATTTGGATGGTTGA [3d1875]”, the fraction ligated came to 0.137.

“TATCACTTGTCTAAGACATTTGGTGGGTTGA [3d1873]” came in with a fraction ligated of 0.0508.

The sequence “TATCACTTGTCTAAGACCTTGGATGGGTTGA [3d1864]” showed a fraction ligated of 0.762.

The sequence “TATCACTTGTCTAAGACCTTTGATGGGTTGA [3d1865]” yielded a fraction ligated of 0.732.

As to “TATCACTTGTCTAAGACCTTTGGAGGGTTGA [3d1867]”, the fraction ligated turned out to be 0.202.

“TATCACTTGTCTAAGACCTTTGGATGGGTTA [3d1869]” displayed a fraction ligated of 0.732.

“TATCACTTGTCTAAGACCTTTGGATGGGTTG [3d1870]” gave a fraction ligated of 0.755.

In turn, “TATCACTTGTCTAAGACCTTTGGATGGTTGA [3d1868]” registered a fraction ligated of 0.269.

“TATCACTTGTCTAAGACCTTTGGTGGGTTGA [3d1866]” gave a fraction ligated of 0.227.

Regarding “TATCACTTGTCTAAGACTTTGGATGGGTTGA [3d1846]”, the fraction ligated worked out at 0.786.

In turn, “TATCACTTGTCTAAGCACTTGGATGGGTTGA [3d1849]” came in with a fraction ligated of 0.766.

“TATCACTTGTCTAAGCACTTTGATGGGTTGA [3d1850]” registered a fraction ligated of 0.724.

The sequence “TATCACTTGTCTAAGCACTTTGGAGGGTTGA [3d1852]” displayed a fraction ligated of 0.128.

For “TATCACTTGTCTAAGCACTTTGGATGGGTTA [3d1854]”, the fraction ligated was determined as 0.712.

As for “TATCACTTGTCTAAGCACTTTGGATGGGTTG [3d1855]”, the fraction ligated was 0.75.

The sequence “TATCACTTGTCTAAGCACTTTGGATGGTTGA [3d1853]” registered a fraction ligated of 0.165.
